What all share (conditions): both partners purified
In assay [1] the target is T1, transglutaminase 2 mutant R19S (Homo sapiens (assumed; human TG2 …, UniProt P21980, R19S).
T1 construct: transglutaminase 2 (TG2); also called TG2 R19S
In words: SPR; BIAcore 3000; anti-TG2 antibodies amine-coupled to CM5 chips (700-2300 RU); WT or mutant TG2 injected in HBS-EP (0.01 M HEPES, 0.15 M NaCl, 2 mM EDTA, 0.05% P20, pH 7.4), 40 ul/min, 25 °C; relative binding at 500 nM, kinetics from serial dilutions (15.6/156-500/5000 nM); 1:1 Langmuir model; reference cell with a non-TG2 reactive antibody. For orientation: SPR reads the build-up and loss of mass on a sensor chip optically.

Assay [2] deals with T2, transglutaminase 2 mutant K30A (Homo sapiens (assumed; human TG2 …, UniProt P21980, K30A).
T2 construct: transglutaminase 2 (TG2); also called TG2 K30A
Described as above.

Assay [3] deals with T3, transglutaminase 2, wild type (UniProt P21980).
T3 construct: transglutaminase 2 (TG2); For the complex, native PAGE and SAXS the protein was incubated with 1 mM GDP (closed conformation); SASBDB SASDA28, SASDA38 and SASDA48 hold the SAXS data of TG2-GDP, the Fab and the complex; also called TG2; WT TG2
The description is as above.

For assay [4], the target named is T4, transglutaminase 2 mutant R116A (Homo sapiens (assumed; human TG2 …, UniProt P21980, R116A).
T4 construct: transglutaminase 2 (TG2); also called TG2 R116A
The description is as above.

For assay [5], the target named is T3, transglutaminase 2, wild type. In words: SAXS; complex of TG2-GDP and 679-14-E06 Fab in solution, data at 9 mg/ml; molecular weight estimates and ab initio models; beamline P12, PETRA III.

T3 sequence (P21980 whole entry): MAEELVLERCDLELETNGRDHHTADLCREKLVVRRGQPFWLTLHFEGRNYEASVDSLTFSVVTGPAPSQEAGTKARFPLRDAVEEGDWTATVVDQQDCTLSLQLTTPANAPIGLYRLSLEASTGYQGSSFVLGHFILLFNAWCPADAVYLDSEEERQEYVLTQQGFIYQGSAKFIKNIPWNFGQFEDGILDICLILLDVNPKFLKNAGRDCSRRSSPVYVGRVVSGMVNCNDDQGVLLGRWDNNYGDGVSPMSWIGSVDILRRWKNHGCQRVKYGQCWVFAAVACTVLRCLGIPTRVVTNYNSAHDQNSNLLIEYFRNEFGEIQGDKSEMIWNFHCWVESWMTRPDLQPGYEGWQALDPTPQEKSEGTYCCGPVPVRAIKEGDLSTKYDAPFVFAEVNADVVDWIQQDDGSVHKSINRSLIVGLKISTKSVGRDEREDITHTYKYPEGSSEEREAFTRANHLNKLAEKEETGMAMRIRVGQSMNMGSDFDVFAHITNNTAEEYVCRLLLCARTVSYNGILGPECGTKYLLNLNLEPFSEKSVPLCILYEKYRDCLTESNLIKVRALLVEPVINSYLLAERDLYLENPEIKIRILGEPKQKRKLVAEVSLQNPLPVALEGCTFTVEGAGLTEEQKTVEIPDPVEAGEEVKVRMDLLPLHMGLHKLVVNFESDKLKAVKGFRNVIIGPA
T1 sequence (P21980 whole entry R19S): as the sequence (P21980 whole entry) above, with R19S counted along it
T2 sequence (P21980 whole entry K30A): as the sequence (P21980 whole entry) above, with K30A counted along it
T4 sequence (P21980 whole entry R116A): as the sequence (P21980 whole entry) above, with R116A counted along it

B1: anti-TG2 antibody 679-14-E06 (human IgG1) (antibody, V domains shown)
VH: EVQLVQSGAEVKKPGESLKISCKGSGYSFTSYWIGWVRQMPGKGLEWMGIIYPGDSDTRYSPSFQGQVTISADKSISTAYLQWSSLKASDTAMYYCARPHYYDSLDAFDIWGQGTMVTVSS
VL: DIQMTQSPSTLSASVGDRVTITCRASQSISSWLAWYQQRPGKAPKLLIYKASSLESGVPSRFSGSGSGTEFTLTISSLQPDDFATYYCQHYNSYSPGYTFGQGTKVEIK
notes: constant region of human IgG1; IgG1; derived from a single gut IgA plasma cell of a celiac disease patient; Residues 142-149, 198-207, 225-231 of the heavy chain and 172-175, 228-234 of the light chain lack electron density in PDB 4ZD3 (IMGT numbering); source: HEK 293F cells, co-transfected heavy and light chain plasmids; purified from culture supernatant (protein G column)
For B1, the Kd – broadly, the concentration at which binding is half-saturated – came to 147 nM in assay [1], 49.9 nM in assay [2], 55.5 nM in assay [3] and 240 nM in assay [4]. Also, the off-rate constant (koff) (usually the first-order rate constant of dissociation) was 0.00525 s⁻¹ in assay [1], 0.00353 s⁻¹ in assay [2], 0.00474 s⁻¹ in assay [3] and 0.00736 s⁻¹ in assay [4]. The kon (in general, the rate constant with which the complex forms) worked out at 35800 M⁻¹ s⁻¹ in assay [1], 70800 M⁻¹ s⁻¹ in assay [2], 85300 M⁻¹ s⁻¹ in assay [3] and 30600 M⁻¹ s⁻¹ in assay [4].

B2: Fab fragment of antibody 679-14-E06 (Fab, V domains shown)
VH: EVQLVQSGAEVKKPGESLKISCKGSGYSFTSYWIGWVRQMPGKGLEWMGIIYPGDSDTRYSPSFQGQVTISADKSISTAYLQWSSLKASDTAMYYCARPHYYDSLDAFDIWGQGTMVTVSS
VL: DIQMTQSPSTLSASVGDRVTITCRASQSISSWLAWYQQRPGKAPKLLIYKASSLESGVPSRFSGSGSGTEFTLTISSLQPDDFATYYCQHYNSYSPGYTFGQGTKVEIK
notes: Electron density is missing for residues 142-149, 198-207, 225-231 of the heavy chain and 172-175, 228-234 of the light chain in PDB 4ZD3 (IMGT numbering); also called the Fab fragment; source: HEK 293F cells, co-transfected heavy and light chain plasmids; purified from culture supernatant (protein L column)
For B2, the stoichiometry N (usually the number of molecules, sites or subunits per partner or assembly) in assay [5] is 1.

The values above are taken from paper PMC4571865, “Structural Basis for Antigen Recognition by Transglutaminase 2-specific Autoantibodies in Celiac Disease*” (The Journal of Biological Chemistry, 2015).
